Assay results: patent US20170210813A1 (Regeneron, published 2017)

Experiments:
[1] = molecular target: T1, hPDGFRb.mmh (human, UniProt P09619 33-531); experiment: Octet BLI cross-competition, 25 C; hPDGFRb.mmh on anti-Penta-His tips pre-saturated with mAb-1 H4H3107S (row 7)
T1 construct: Soluble monomeric construct; also called soluble human PDGFR-beta.mmh
Procedure, shortened: (§1)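 Read-out is the real-time response of a second antibody binding to PDGFR-beta.mmh already complexed with a first antibody. The first antibody (50 μg/mL) was loaded for 5 min beforehand; buffer was Octet HBST, agitation 1000 rpm.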

[2] = molecular target: T2, full length human PDGFR-beta on HEK293 cells (human, UniProt P09619 33-1106); experiment: cell-based or functional assay
[3] = molecular target: T1, hPDGFRb.mmh; experiment: SPR, mAb captured, 25 C
Method: (§2) Antibodies, expressed as either mouse Fc (prefix H1M; H2M) or human Fc (prefix H4H), were captured on their respective anti-Fc sensor surfaces (Mab capture format). […] Kinetic association (kₐ) and dissociation (kd) rate constants were determined by processing and fitting the data to a 1:1 binding model using Scrubber 2.0 curve fitting software.

[4] = molecular target: T3, Macaca fascicularis PDGFRb.mmh (Macaca fascicularis); experiment: SPR, mAb captured, 25 C
T3 construct: Soluble monomeric construct; also called mfPDGFRb.mmh
T3 chain: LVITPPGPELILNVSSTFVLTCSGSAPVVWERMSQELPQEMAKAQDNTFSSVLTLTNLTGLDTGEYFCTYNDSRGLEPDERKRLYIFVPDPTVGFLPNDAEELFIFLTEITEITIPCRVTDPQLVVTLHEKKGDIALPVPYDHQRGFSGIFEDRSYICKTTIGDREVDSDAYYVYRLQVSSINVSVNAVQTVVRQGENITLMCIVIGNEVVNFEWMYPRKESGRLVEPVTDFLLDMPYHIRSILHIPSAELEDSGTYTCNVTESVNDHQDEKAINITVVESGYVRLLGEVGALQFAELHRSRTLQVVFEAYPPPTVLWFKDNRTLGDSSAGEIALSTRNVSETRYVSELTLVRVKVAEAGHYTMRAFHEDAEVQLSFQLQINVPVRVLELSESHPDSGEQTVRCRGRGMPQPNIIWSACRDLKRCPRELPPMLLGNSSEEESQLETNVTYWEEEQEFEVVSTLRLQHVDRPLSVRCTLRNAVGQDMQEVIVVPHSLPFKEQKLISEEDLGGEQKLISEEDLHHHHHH
Method: as §2

[5] = molecular target: T4, human PDGFRb.hFc (human); experiment: SPR, mAb captured, 25 C
T4 construct: Soluble dimeric construct with human Fc; also called hPDGFRb.hFc
Method: as §2

[6] = molecular target: T1, hPDGFRb.mmh; experiment: Octet BLI cross-competition, 25 C; hPDGFRb.mmh on anti-Penta-His tips pre-saturated with mAb-1 H4H3103S (row 4)
Procedure, shortened: as §1

[7] = molecular target: T2, full length human PDGFR-beta on HEK293 …; experiment: cell-based or functional assay; remark: listed apart in the source
[8] = molecular target: T1, hPDGFRb.mmh; experiment: Octet BLI cross-competition, 25 C; hPDGFRb.mmh on anti-Penta-His tips pre-saturated with mAb-1 H4H3099S (row 6)
Procedure, shortened: as §1

[9] = molecular target: T1, hPDGFRb.mmh; experiment: Octet BLI cross-competition, 25 C; hPDGFRb.mmh on anti-Penta-His tips pre-saturated with mAb-1 H4H3365N (row 2)
Procedure, shortened: as §1

[10] = molecular target: T1, hPDGFRb.mmh; experiment: Octet BLI cross-competition, 25 C; hPDGFRb.mmh on anti-Penta-His tips pre-saturated with mAb-1 H4H3310N (row 9)
Procedure, shortened: as §1

[11] = molecular target: T1, hPDGFRb.mmh; experiment: Octet BLI cross-competition, 25 C; hPDGFRb.mmh on anti-Penta-His tips pre-saturated with mAb-1 H4H3374N (row 3)
Procedure, shortened: as §1

[12] = molecular target: T1, hPDGFRb.mmh; experiment: SPR, mAb captured, 37 C
Method: as §2

[13] = molecular target: T3, Macaca fascicularis PDGFRb.mmh; experiment: SPR, mAb captured, 37 C
Method: as §2

[14] = molecular target: T4, human PDGFRb.hFc; experiment: SPR, mAb captured, 37 C
Method: as §2

[15] = molecular target: T1, hPDGFRb.mmh; experiment: Octet BLI cross-competition, 25 C; hPDGFRb.mmh on anti-Penta-His tips pre-saturated with mAb-1 H4H3094P (row 5)
Procedure, shortened: as §1

B1: H4H3305N (antibody, human IgG4, V domains shown)
VH: QLQLQESGPGLVKPSETLSLTCIVSGGSISSSSYYWGWIRQPPGKGLEWIGSLYYSGITFYNPSLKSRVTISVDTSKNQFSLTLTSVTAADTAVFYCARHRVMASSPFDHWGQGTLVTVSS
VL: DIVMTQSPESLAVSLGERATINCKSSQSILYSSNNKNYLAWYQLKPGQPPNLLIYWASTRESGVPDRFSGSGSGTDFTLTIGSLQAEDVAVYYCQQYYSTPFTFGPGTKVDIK
notes: human IgG4 Fc (H4H prefix)
With B1 the “Response of mAb-2 Binding to hPDGFRβ.mmh Pre-Complexed with mAb-1 (nm)” value (“Response of mAb-2 Binding” for short) [1] was 0 nm, the “IC50, blocking PDGF-BB (250 pM) activation, SRE-luciferase” value [2] was 5e-10 M and the “IC50, blocking PDGF-DD (400 pM) activation, SRE-luciferase” value [2] was 4.8e-10 M. The Kd [3] was 1.81 nM, the koff [3] was 0.000109 s⁻¹ and the kon [3] was 59900 M⁻¹ s⁻¹. The t1/2 [3] was 1.77 h, the Kd [4] was 1.82 nM and the koff [4] was 0.000111 s⁻¹. For the same binder, the kon [4] was 61200 M⁻¹ s⁻¹, the t1/2 [4] was 1.73 h and the Kd [5] was 0.248 nM. For the same binder, the koff [5] was 3.42e-05 s⁻¹, the kon [5] was 138000 M⁻¹ s⁻¹ and the t1/2 [5] was 5.63 h. The “Response of mAb-2 Binding” value [6] was 0.25 nm, the “Percent Internalization (Relative to Control I)” value [7] was 79% and the “Response of mAb-2 Binding” value [8] was 0 nm. The “Response of mAb-2 Binding” value [9] was 0.26 nm, the “Response of mAb-2 Binding” value [10] was 0.01 nm and the “Response of mAb-2 Binding” value [11] was 0.24 nm. For the same binder, the Kd [12] was 1.93 nM, the koff [12] was 0.000355 s⁻¹ and the kon [12] was 184000 M⁻¹ s⁻¹. It also gave a t1/2 [12] of 0.55 h, a Kd [13] of 2.04 nM and a koff [13] of 0.00039 s⁻¹. The kon [13] was 191000 M⁻¹ s⁻¹, the t1/2 [13] was 0.5 h and the Kd [14] was 0.197 nM. The koff [14] was 4.85e-05 s⁻¹, the kon [14] was 247000 M⁻¹ s⁻¹ and the t1/2 [14] was 3.97 h. The “Response of mAb-2 Binding” value [15] was 0.27 nm.
